Molecular target: GST-Rheb protein (UniProt Q15382 1-169)
Assay: BLI

GST-Rheb protein, sequence (Q15382 1-169): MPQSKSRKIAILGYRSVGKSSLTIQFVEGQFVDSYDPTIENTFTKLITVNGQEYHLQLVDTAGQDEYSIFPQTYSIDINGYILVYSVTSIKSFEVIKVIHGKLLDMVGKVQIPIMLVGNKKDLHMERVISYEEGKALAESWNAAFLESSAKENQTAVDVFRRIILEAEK

B1: His-IL-37d, recombinant human IL-37d protein with a TAT peptide (pET-22b-TAT-his-IL-37d; mature IL-37d 21–197aa) (other)
chain: YGRKKRRQRRREPQCCLEGPKVKNLNPKKFSIHDQDHKVLVLDSGNLIAVPDKNYIRPEIFFALASSLSSASAEKGSPILLGVSKGEFCLYCDKDKGQSHPSLQLKKEKLMKLAAQKESARRPFIFYRAQVGSWNMLESAAHPGWFICTSCNCNEPVGVTDKFENRKHIEFSFQPVCKAEMSPSEVSD
- koff: 0.00194 s⁻¹

— publication PMC11192940 (2024)
